Reference: paper doi:10.1101/2022.01.26.477835 (bioRxiv, 2022)

Target: His fused LCK (His-LCK) (human, UniProt P06239 1-509)
Assay: pull-down

Sequence of His fused LCK (His-LCK) (P06239 whole entry, the tested form may be a part): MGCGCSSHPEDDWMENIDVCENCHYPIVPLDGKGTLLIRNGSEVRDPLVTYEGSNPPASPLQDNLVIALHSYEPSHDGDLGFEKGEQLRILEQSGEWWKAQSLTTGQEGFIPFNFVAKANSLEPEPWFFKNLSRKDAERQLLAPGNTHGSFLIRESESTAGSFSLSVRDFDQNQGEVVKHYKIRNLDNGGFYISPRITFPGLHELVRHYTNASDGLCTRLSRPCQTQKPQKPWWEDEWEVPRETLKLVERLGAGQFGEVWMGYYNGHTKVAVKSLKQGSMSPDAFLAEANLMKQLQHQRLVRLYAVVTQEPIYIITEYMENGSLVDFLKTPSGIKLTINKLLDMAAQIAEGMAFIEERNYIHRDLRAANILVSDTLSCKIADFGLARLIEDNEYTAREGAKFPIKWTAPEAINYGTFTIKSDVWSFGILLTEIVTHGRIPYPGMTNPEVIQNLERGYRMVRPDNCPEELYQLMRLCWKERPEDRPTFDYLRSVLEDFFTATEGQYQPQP

binding result: binds
B1: GST-tagged C-terminus of TRPM8 (GST-M8C) (domain or fragment, rat, UniProt Q8R455 980-1104, looked up)
chain: GYTVGIVQENNDQVWKFQRYFLVQEYCNRLNIPFPFVVFAYFYMVVKKCFKCCCKEKNTESSACCFRNEDNETLAWEGVMKENYLVKINTKANDNAEEMRHRFRQLDTKLNDLKGLLKEIANKIK
